# Assay results published in PMC6249866 (Molecular Biology of the Cell, 2018).
# T1: Asl-A-His6 (WT; Asterless amino acids 1-374) (Drosophila, UniProt Q9VNE4 1-374)
# T1 sequence (looked up): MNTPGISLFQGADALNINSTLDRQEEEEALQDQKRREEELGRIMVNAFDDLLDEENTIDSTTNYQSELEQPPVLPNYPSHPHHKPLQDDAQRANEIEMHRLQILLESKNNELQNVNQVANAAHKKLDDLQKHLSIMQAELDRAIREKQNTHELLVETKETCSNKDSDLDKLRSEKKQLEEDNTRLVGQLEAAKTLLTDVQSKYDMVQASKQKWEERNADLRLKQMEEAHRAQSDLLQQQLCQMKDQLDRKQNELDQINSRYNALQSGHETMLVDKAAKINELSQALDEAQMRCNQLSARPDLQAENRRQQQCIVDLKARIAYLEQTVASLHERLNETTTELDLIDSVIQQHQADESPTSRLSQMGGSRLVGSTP
# B1: GST-PB1-PB2 (Plk4 amino acids 382-602) (domain or fragment, Drosophila, UniProt O97143 382-602, looked up)
# chain: DRISVPPLNTKRLLPTRYKTKNAIMSILRNGEVVLEFLKFRPTYNEDRINDICRISDDGQRIIIYQPDPGRGLPVREQPPDLQIPSGDCVYNYDNLPSKHWKKYIYGARFVGLVKSKTPKVTYFSTLGKCQLMETMTDFEIRFYSGAKLLKTPSEGLKVYDRNGMLLSDYSCSESRSLIEHGNECFTHCVNISNALEVAQTKDNSCFPVTIGRRPITDVQP
# Biological target: T1, Asl-A-His6 (WT; Asterless amino acids …)
# Experiment: pull-down
binder,measurement,value
B1,binding result,binds
